# Measurements from publication PMC5770437, “The crystal structure of D-xylonate dehydratase reveals functional features of enzymes from the Ilv/ED dehydratase family” (Scientific Reports, 2018).
# B1: 6-phosphogluconate dehydratase from Shewanella oneidensis (enzyme)
# chain: MHSVVQSVTDRIIARSKASREAYLAALNDARNHGVHRSSLSCGNLAHGFAACNPDDKNALRQLTKANIGIITAFNDMLSAHQPYETYPDLLKKACQEVGSVAQVAGGVPAMCDGVTQGQPGMELSLLSREVIAMATAVGLSHNMFDGALLLGICDKIVPGLLIGALSFGHLPMLFVPAGPMKSGIPNKEKARIRQQFAQGKVDRAQLLEAEAQSYHSAGTCTFYGTANSNQLMLEVMGLQLPGSSFVNPDDPLREALNKMAAKQVCRLTELGTQYSPIGEVVNEKSIVNGIVALLATGGSTNLTMHIVAAARAAGIIVNWDDFSELSDAVPLLARVYPNGHADINHFHAAGGMAFLIKELLDAGLLHEDVNTVAGYGLRRYTQEPKLLDGELRWVDGPTVSLDTEVLTSVATPFQNNGGLKLLKGNLGRAVIKVSAVQPQHRVVEAPAVVIDDQNKLDALFKSGALDRDCVVVVKGQGPKANGMPELHKLTPLLGSLQDKGFKVALMTDGRMSGASGKVPAAIHLTPEAIDGGLIAKVQDGDLIRVDALTGELSLLVSDTELATRTATEIDLRHSRYGMGRELFGVLRSNLSSPETGARSTSAIDELY
# notes: 6-phosphogluconate dehydratase, Shewanella oneidensis, GenBank WP_011072452; apo form as in PDB 2GP4 (no [Fe-S] cluster, no Mg2+); The crystal data were deposited by others (PDB 2GP4, unpublished); also called So6PGDHT; SoPGDHT
# Columns and labels:
# [1] = target: D-xylonate dehydratase from Caulobacter crescentus (Caulobacter crescentus); assay: crystal structure; holo-CcXyDHT at 2.7 Å, molecular replacement with 5J84, space group C2, a tetramer in the asymmetric unit; packing analysed with the PISA server
# [2] = target: T1, D-xylonate dehydratase from Caulobacter crescentus (CcXyDHT) (Caulobacter vibrioides, UniProt Q9A9Z2); assay: X-ray crystal structure, […] Å; assay type: binding; details: holo form with Mg2+; Fe1 bound by Cys60 and Cys128, Fe2 by Cys200; active site
# T1 construct: gene xylD; N-terminal Strep-tag II kept; expressed in E. coli; homotetramer; residues 1-591 (Asn3-His591 modelled); Lys130 carbamylated
# [3] = target: the molecule itself; assay: crystal structure; re-refinement with PHENIX of the deposited apo So6PGDHT model (PDB 2GP4, 2.5 Å)
# T1 sequence (Q9A9Z2 6-595): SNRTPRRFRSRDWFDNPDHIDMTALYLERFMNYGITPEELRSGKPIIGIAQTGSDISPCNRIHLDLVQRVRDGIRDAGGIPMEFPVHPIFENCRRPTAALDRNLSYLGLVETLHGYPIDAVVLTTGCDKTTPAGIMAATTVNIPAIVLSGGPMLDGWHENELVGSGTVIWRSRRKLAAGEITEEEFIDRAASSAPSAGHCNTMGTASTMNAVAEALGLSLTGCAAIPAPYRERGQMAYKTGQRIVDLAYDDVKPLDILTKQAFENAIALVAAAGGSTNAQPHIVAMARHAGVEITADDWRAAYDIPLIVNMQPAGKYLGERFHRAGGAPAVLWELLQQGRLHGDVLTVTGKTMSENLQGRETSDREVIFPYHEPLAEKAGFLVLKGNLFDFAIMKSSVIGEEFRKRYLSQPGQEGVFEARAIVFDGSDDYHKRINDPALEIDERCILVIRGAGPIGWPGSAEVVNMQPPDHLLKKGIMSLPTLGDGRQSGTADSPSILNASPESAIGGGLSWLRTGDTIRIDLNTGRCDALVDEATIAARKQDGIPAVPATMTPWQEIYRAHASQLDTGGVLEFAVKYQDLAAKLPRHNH
molecule,measurement,setting,value
D-xylonate dehydratase from Caulobacter crescentus (enzyme),stoichiometry N,[1],4
[S]1[Fe][S][Fe]1 [[2Fe-2S] cluster],"X-ray crystal structure, 2.7 Å",[2],The crystal structure of CcXyDHT suggests that the enzyme has a [2Fe-2S] cluster
B1,stoichiometry N,[3],2
